Experimental data from publication doi:10.1101/481713.

Legend:
[1] = target: Xenopus laevis CENP-E-GFP construct (1-473 aa) (Xenopus laevis); assay: binding of microtubules to protein-coated beads seen by fluorescence microscopy
[2] = target: human Broccoli Ndc80-GFP construct (human) (UniProt O14777); assay: as above
[3] = target: human Broccoli Ndc80-GFP construct (human) (UniProt O14777)

UniProt O14777, sequence (O14777 whole entry, looked up): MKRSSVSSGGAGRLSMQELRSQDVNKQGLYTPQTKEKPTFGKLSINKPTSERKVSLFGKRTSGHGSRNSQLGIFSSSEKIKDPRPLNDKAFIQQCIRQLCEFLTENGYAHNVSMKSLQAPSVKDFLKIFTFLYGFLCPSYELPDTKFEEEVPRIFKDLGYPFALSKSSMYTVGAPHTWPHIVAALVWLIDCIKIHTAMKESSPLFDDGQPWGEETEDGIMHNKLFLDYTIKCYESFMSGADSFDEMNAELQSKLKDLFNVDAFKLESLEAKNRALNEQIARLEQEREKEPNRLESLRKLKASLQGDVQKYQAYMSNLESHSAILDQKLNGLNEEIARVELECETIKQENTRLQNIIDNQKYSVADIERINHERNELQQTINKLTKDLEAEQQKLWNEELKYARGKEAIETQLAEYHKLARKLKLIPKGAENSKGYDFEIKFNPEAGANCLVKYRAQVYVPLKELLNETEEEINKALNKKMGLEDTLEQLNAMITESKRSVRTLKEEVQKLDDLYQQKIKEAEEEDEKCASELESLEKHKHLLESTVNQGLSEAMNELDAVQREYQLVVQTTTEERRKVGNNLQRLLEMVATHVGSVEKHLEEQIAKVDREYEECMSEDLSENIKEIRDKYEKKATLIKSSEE

## microtubules polymerised from bovine brain tubulin (from UniProt Q6B856 1-445) (complex)
[1]
  MT end-retention time: 1.1 min
  percent of MT plus-ends retained at the CENP-E–coated bead: 24%
  time within which >80% of MTs detached (Kaplan–Meier): < 2.5 min
[2]
  percent of MT segments attached via their ends to beads coated with Ndc80 alone: 3%
[3]
  reduction of CENP-E motor gliding velocity on beads by the Ndc80 coating: 4 fold
